Experimental data: paper PMC10060833

Target: recombinant HAdV55 fiber protein (human adenovirus type 55 (HAdV55))
Experiment: SDS-PAGE without heating or reducing agent; purified recombinant fiber in loading buffer with 10% SDS, without beta-ME, kept at room temperature for 5 min ("Non-reducing")

Substance: recombinant HAdV55 fiber protein (natural protein)
- stoichiometry N: 3
